Test results as given in the supplement of paper PMC10567573.

B1: KCNAB2 (parent)
chain: SSIIHEIDSILGNKPYSKKDYRS

Variants of: B1
Experiment: protein stability index of a GFP-peptide fusion (GPS, HEK-293T) (PSI 1-6); higher = more stable
Conditions: c terminus: native
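Note: lentivirally expressed fusions sorted by FACS into six bins by GFP to DsRed ratio, PSI derived from sequencing read proportions per bin multiplied by bin number.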

Compared with SSIIHEIDSYLGNKPYSKKDYRS [I10Y], SSIIHEIDSWLGNKPYSKKDYRS [I10W] is lower in protein stability index: 3 for the first, 1.96 for the second.

Compared with SSIIHEIDSSLGNKPYSKKDYRS [I10S], SSIIHEIDSVLGNKPYSKKDYRS [I10V] is lower in protein stability index: 3.68 for the first, 3.67 for the second.

First: SSIIHEIDSRLGNKPYSKKDYRS [I10R]
Second: SSIIHEIDSIWGNKPYSKKDYRS [L11W]
The protein stability index of the first is higher: 4.3 for the first, 2.63 for the second.

Going from SSIIHEIDSIKGNKPYSKKDYRS [L11K] to SSIIHEIDSIYGNKPYSKKDYRS [L11Y], the protein stability index falls from 4.03 to 3.4.

First: SSIIHEIDSITGNKPYSKKDYRS [L11T]
Second: SSIIHEIDSIDGNKPYSKKDYRS [L11D]
The protein stability index of the first is lower: 4.27 for the first, 4.72 for the second.

First: SSIIHEIDSIMGNKPYSKKDYRS [L11M]
Second: SSIIHEIDSIRGNKPYSKKDYRS [L11R]
The protein stability index of the first is lower: 4.04 for the first, 4.13 for the second.

First: SSIIHEIDSICGNKPYSKKDYRS [L11C]
Second: SSIIHEIDSIQGNKPYSKKDYRS [L11Q]
The protein stability index of the first is lower: 3.86 for the first, 4.91 for the second.

First: SSIIHEIDSIIGNKPYSKKDYRS [L11I]
Second: SSIIHEIDSIFGNKPYSKKDYRS [L11F]
The protein stability index of the first is higher: 3.42 for the first, 3.07 for the second.

Going from SSIIHEIDSIHGNKPYSKKDYRS [L11H] to SSIIHEIDSIAGNKPYSKKDYRS [L11A], the protein stability index falls from 4.46 to 3.9.

Going from SSIIHEIDSIEGNKPYSKKDYRS [L11E] to SSIIHEIDSINGNKPYSKKDYRS [L11N], the protein stability index falls from 4.69 to 4.

Going from SSIIHEIDSISGNKPYSKKDYRS [L11S] to SSIIHEIDSIGGNKPYSKKDYRS [L11G], the protein stability index falls from 4.36 to 4.19.

First: SSIIHEIDSIVGNKPYSKKDYRS [L11V]
Second: SSIIHEIDSIPGNKPYSKKDYRS [L11P]
The protein stability index of the first is lower: 3.69 for the first, 4.19 for the second.

Going from SSIIHEIDSILGNRPYSKKDYRS [K14R] to SSIIHEIDSILGNGPYSKKDYRS [K14G], the protein stability index falls from 3.09 to 2.69.

Going from SSIIHEIDSILGNFPYSKKDYRS [K14F] to SSIIHEIDSILGNPPYSKKDYRS [K14P], the protein stability index rises from 1.99 to 3.

First: SSIIHEIDSILGNWPYSKKDYRS [K14W]
Second: SSIIHEIDSILGNQPYSKKDYRS [K14Q]
The protein stability index of the first is lower: 1.7 for the first, 3.1 for the second.

Going from SSIIHEIDSILGNTPYSKKDYRS [K14T] to SSIIHEIDSILGNSPYSKKDYRS [K14S], the protein stability index rises from 2.89 to 3.49.

Going from SSIIHEIDSILGNVPYSKKDYRS [K14V] to SSIIHEIDSILGNMPYSKKDYRS [K14M], the protein stability index falls from 2.94 to 2.9.

Compared with SSIIHEIDSILGNIPYSKKDYRS [K14I], SSIIHEIDSILGNYPYSKKDYRS [K14Y] is lower in protein stability index: 2.63 for the first, 2.32 for the second.

Compared with SSIIHEIDSILGNAPYSKKDYRS [K14A], SSIIHEIDSILGNHPYSKKDYRS [K14H] is lower in protein stability index: 2.62 for the first, 2.32 for the second.

Going from SSIIHEIDSILGNEPYSKKDYRS [K14E] to SSIIHEIDSILGNCPYSKKDYRS [K14C], the protein stability index falls from 3.24 to 2.55.

First: SSIIHEIDSILGNDPYSKKDYRS [K14D]
Second: SSIIHEIDSILGNLPYSKKDYRS [K14L]
The protein stability index of the first is higher: 3.31 for the first, 2.77 for the second.

Going from SSIIHEIDSILGNNPYSKKDYRS [K14N] to SSIIHEIDSILGNKPYSKKVYRS [D20V], the protein stability index falls from 3.22 to 2.03.

Compared with SSIIHEIDSILGNKPYSKKKYRS [D20K], SSIIHEIDSILGNKPYSKKMYRS [D20M] is higher in protein stability index: 2.47 for the first, 2.96 for the second.

Compared with SSIIHEIDSILGNKPYSKKQYRS [D20Q], SSIIHEIDSILGNKPYSKKNYRS [D20N] is higher in protein stability index: 2.04 for the first, 3.2 for the second.

Going from SSIIHEIDSILGNKPYSKKSYRS [D20S] to SSIIHEIDSILGNKPYSKKCYRS [D20C], the protein stability index falls from 2.78 to 2.01.

Going from SSIIHEIDSILGNKPYSKKIYRS [D20I] to SSIIHEIDSILGNKPYSKKPYRS [D20P], the protein stability index rises from 2.41 to 4.21.

Compared with SSIIHEIDSILGNKPYSKKAYRS [D20A], SSIIHEIDSILGNKPYSKKYYRS [D20Y] is lower in protein stability index: 2.14 for the first, 2.07 for the second.

Going from SSIIHEIDSILGNKPYSKKHYRS [D20H] to SSIIHEIDSILGNKPYSKKFYRS [D20F], the protein stability index falls from 2.51 to 2.37.

First: SSIIHEIDSILGNKPYSKKLYRS [D20L]
Second: SSIIHEIDSILGNKPYSKKEYRS [D20E]
The protein stability index of the first is lower: 2.63 for the first, 2.89 for the second.

Compared with SSIIHEIDSILGNKPYSKKTYRS [D20T], SSIIHEIDSILGNKPYSKKGYRS [D20G] is lower in protein stability index: 3.55 for the first, 3.07 for the second.

Compared with SSIIHEIDSILGNKPYSKKWYRS [D20W], SSIIHEIDSILGNKPYSKWDYRS [K19W] is higher in protein stability index: 1.92 for the first, 2.8 for the second.

Going from SSIIHEIDSILGNKPYSKEDYRS [K19E] to SSIIHEIDSILGNKPYSKTDYRS [K19T], the protein stability index falls from 4.45 to 4.16.

Going from SSIIHEIDSILGNKPYSKADYRS [K19A] to SSIIHEIDSILGNKPYSKRDYRS [K19R], the protein stability index falls from 3.55 to 2.89.

Compared with SSIIHEIDSILGNKPYSKSDYRS [K19S], SSIIHEIDSILGNKPYSKNDYRS [K19N] is higher in protein stability index: 3.92 for the first, 4.06 for the second.

First: SSIIHEIDSILGNKPYSKPDYRS [K19P]
Second: SSIIHEIDSILGNKPYSKYDYRS [K19Y]
The protein stability index of the first is higher: 4.09 for the first, 2.45 for the second.

Going from SSIIHEIDSILGNKPYSKMDYRS [K19M] to SSIIHEIDSILGNKPYSKHDYRS [K19H], the protein stability index rises from 3.75 to 3.9.

Going from SSIIHEIDSILGNKPYSKIDYRS [K19I] to SSIIHEIDSILGNKPYSKLDYRS [K19L], the protein stability index rises from 3.3 to 3.58.

Compared with SSIIHEIDSILGNKPYSKFDYRS [K19F], SSIIHEIDSILGNKPYSKCDYRS [K19C] is higher in protein stability index: 2.66 for the first, 3.2 for the second.

First: SSIIHEIDSILGNKPYSKDDYRS [K19D]
Second: SSIIHEIDSILGNKPYSKVDYRS [K19V]
The protein stability index of the first is higher: 4.08 for the first, 3.82 for the second.

Going from SSIIHEIDSILGNKPYSKGDYRS [K19G] to SSIIHEIDSILGNKPYSKQDYRS [K19Q], the protein stability index rises from 3.84 to 3.87.

First: SSIIHEIDSILGCKPYSKKDYRS [N13C]
Second: SSIIHEIDSILGWKPYSKKDYRS [N13W]
The protein stability index of the first is lower: 2.25 for the first, 2.38 for the second.

Compared with SSIIHEIDSILGLKPYSKKDYRS [N13L], SSIIHEIDSILGGKPYSKKDYRS [N13G] is higher in protein stability index: 2.47 for the first, 2.61 for the second.

Going from SSIIHEIDSILGPKPYSKKDYRS [N13P] to SSIIHEIDSILGRKPYSKKDYRS [N13R], the protein stability index rises from 2.54 to 3.1.

First: SSIIHEIDSILGEKPYSKKDYRS [N13E]
Second: SSIIHEIDSILGTKPYSKKDYRS [N13T]
The protein stability index of the first is lower: 2.82 for the first, 2.97 for the second.

Compared with SSIIHEIDSILGHKPYSKKDYRS [N13H], SSIIHEIDSILGVKPYSKKDYRS [N13V] is lower in protein stability index: 3 for the first, 2.59 for the second.

First: SSIIHEIDSILGMKPYSKKDYRS [N13M]
Second: SSIIHEIDSILGYKPYSKKDYRS [N13Y]
The protein stability index of the first is higher: 2.56 for the first, 1.79 for the second.

Compared with SSIIHEIDSILGFKPYSKKDYRS [N13F], SSIIHEIDSILGQKPYSKKDYRS [N13Q] is lower in protein stability index: 2.68 for the first, 2.63 for the second.

Compared with SSIIHEIDSILGSKPYSKKDYRS [N13S], SSIIHEIDSILGIKPYSKKDYRS [N13I] is lower in protein stability index: 2.59 for the first, 2.51 for the second.

With SSIIHEIDSILGAKPYSKKDYRS [N13A] the protein stability index was 2.14.
